The DeepSol protein solubility set

Assay: soluble on expression in E. coli; label from the status in PepcDB or PDB records

Row | Sequence | soluble on expression in E. coli
1 | MGSDKIHHHHHHMNKIAVIGKVFVDIKGTSFAPLHKDAKNVGDITFSNGGTGRNVAQNLAVLGNDVRFISTVTNDQIGVGVLEELKSYGANVDHVEMLEDHGMGMWLAVMDNEGDLQTSISKQPDAKLLEEAILRQSVYALDGVDAVAIDLDLSVTVLERLIHICRKMELPLYGVCGHLSVIERNRHLLQGFTGFICSREEAEILSDLSIVTVEDAIHVANELAKKGAPFTVVTMSELGAVYVDRRTATSGHVGTKKVKVVDSTGAGDSFFSAVLSELTESKRAEEALQLGMKVAAQVIASTENGLIPEMLETLR | not soluble
2 | MGSDKIHHHHHHMNKIVSFFILILVCSCSDRKEHIANILSMNSIDIKTNRINKDEVIARGAFPFEMIDSLFFLFNGDPSSGALVLCESNASELGHFLQKGNGFGECITPGYIGHCNDTIYVSERSRTRRMTYLLSNHNDSLQYKCLEDVSPKMNSEFYYQICRLQSGLFVGARLFGKEHLFTLLDESLDTLTTFARVPIDIEENANNKLAPFIGHLCIDDNTVYYASNDFSYMAAYDILSEKEIKPVFERMYISPIIQKSANGISLDKYKHLLGFGDIRVYQNYIFATYIGKPDITMDQENDISALVPTHLLVFNKDGVPIVKFKFPFKIRSFVFTKSKMYLLDVDCNIESVDLVELWKHLPD | not soluble
3 | MGSDKIHHHHHHMNLRHLVFFKELARTQHMAKAAENLGISQPSLSYAIKKLEHELGVPLFEADGRNIKLTSIGGVYLKYVTATLNDLSQGNELVKQLMDPDTGHVKLGFTYTLGQQLVPELLSHFKNQSENQAITFELGQGNSGVLLQALADEKYDIVLASNVDRLGEQLTAHLFDFIPLVQQEIVAVVPNDHPAVQKNPLHVEDLAPYPMILFSQNSGLRPLIDQILSAAHVQPKVAYEVEEDYTMAGFVRYNMGVALMPYLPLLNPERVQIKHLADQPLQHQIYLVVRRSGFITPAVHRFQEFIRSYCWQHYTNQERSI | not soluble
4 | MGSDKIHHHHHHMNMLVRFFIMVSLLKQQLNKQLATEYLSVERLMAPVVRHYRVLPHDMGFRDHLPNYRYLSFIELNITNWLMACCHQKGIKNLGWIIAMQEMVYLKQIKFLDKMTVNSRVVGWDKKYVYFEHQFFVKNQLMAMGMTKFVLTNKQGKCATEVLDMTGEQLNEVIDTWSQHQVAIKSAKSTESTKAA | not soluble
5 | MGSDKIHHHHHHMNNKDLWIKEEIIWSEHKCIRFAAGGYEALIIPDVGGNVVELKDTNKGVTILRTPKKDLKFEDFKNRPQVYGLPVLFPPNRIDDGTFKLGDKTYKFPINEAKNNNYIHGFIKNSKWTVHKKKIDQDKALVEVVFDFTKENEAYKYFSHEFQFKLSYELSSKGLKQTTSVVNLSSEEMPLSVGYHSAFNVPFIEGSEDSNCRVKISIDKFWKQDSRNLPTGESFAPTGEQKEYLENGVAVASHPIESLFSLKDIDVNGKTFRGACIEDASKNTRVVYEMSSEYKYLVIWNDMGDKKYACIEPQTSIINSPNVKLDRSVSGFKTLKPNESWSGVCKLYIENM | not soluble
6 | MGSDKIHHHHHHMNNSEKMLVCLDQQDLDKADKYFKRALVQDDSETLLSLAAYLEGIGFFPQARQIYEQVKEEFPEVLINLAQIAFEDGLVEEAFRYLEEISEDSSIYVEALLVKADLYQAEGLSDVAREKLLEASHLSDKPIILFGLAELDMELELFNEAISYYAQLDNREIYELTGISTYQRIGIAYASLGKFEAAIEFLEKAVELEYDDQTVFELAALLFEREEYQKANLYFKQLDTINPDFEGYEYAYAQSLHAEHKIDDALAMTQKGLAKNDFDANLLFQASQYAYELHDEAGAEDYLLRAKEVADDSNELALRLSNLYLEQERFEEVVALFDEEVDNVLARWNKAKAYQALERDDEAIALYDELAGELAENPEFLADYVAVLRQLGRLDEAKEQASRYIQLVPDDLAMQEFLNEE | not soluble
7 | MGSDKIHHHHHHMNQATRNVLWMTGIKKSFSGVPALWGVDFELKAGEIHALVGENGAGKSTLIKIMTGAYRRDSGVMEYDQKTVAFENPIQAQAAGIVAVYQEIQLVGLRTVAENIFLSREPNRFGIIDRRAMNARAADILKRLGLHIDPHSVVGSLNIAHRQMVAIARAISFGARVLILDEPTSSLTKTEVSVLFDVMRRLKSEGTSIVYISHRFEELYTVCDRVTVLRDGRNIVTRSLSMLTRLELVCFMLGRKPEEVSKRVTAFARQSQNMLGQPVLLQAEALKYKKRLNGVSIEVQHGEIVGLAGLLGSGRSETVRALFGAEPLEGGTVKLEGSLLSLRDPHDAIDAGIAFLSEDRKADGIIPELSVRENLTLAALPNLTQWGIVSKKRQSELALRFMERLDIKAASIEQKIRFYTNSGCNYDSSDRGSFLLYPLYAFRPSYRCSRRQRGGCTACGYPCGAREIYSLYN | not soluble
8 | MGSDKIHHHHHHMNRTAVGVDIAKSVFQVHYVDPETGEIVNKPIKRAKFLEFFANRARCLIGMEACGGAQHWARQLMKMGHEIRLMPAEFVKAFNIRNKNDAADARAIWLAVQQPGKPVAVKTEMQQAMLALHRMRRQLVTFRTMQINGLRGLPTEYGEVMGRGRAALDKAIPEVLRRVAERLPAVVIDTLREQWNGLTKLDEQVACIERRMREWKKQDKAVQAISEIPGVGLLTATAAVAMMGDAKAFSSGREFAAWAGLVPKQTGSGGKVNLHGISRRGDTYLRTLLIHGARSVLTHAKDPGPWVEQMKKRRPLNVVVVALANKIARTIWAGTFLRYSYNFP | not soluble
9 | MGSDKIHHHHHHMNRVILFHFHFFKNAGSAVDYILEKNFGDRFVKKEFKLWPYYENIKEVIKWIENESDAVAFSSHTARLFDSTLLERRGIKIIPIIFVRHPIIRIHSAYHYERKQVDIFRPGPVIARNTDFKGYVEIRLAIPRQEFNVSNFHVFRLADMLHGEKNMKPLEKALIALKRLPFIGLVEEFEKSMTKLEETVREYFPEFKASVIRTNVQFSPDMPLEERLKIIKNEVGKDFYKKLMEINEEDMVLWEKVVDMYKEGF | not soluble
10 | MGSDKIHHHHHHMNSSLQVGIGIDVGSSSARIGVYNYYNDALLEMAQEPVPYYQDSSKKSWKFWQKSTEIIKALQKCLQKLNIREYEVKSCGVSATCSLAIFERDRTSNMLIPYPNEDNVIFWMDSSAVNECQWLNMQCPQQLLDYLGGKFVPEMGVPKLKYFLDEYSHLRDKHFHIFDLHQYIAYELSRLYEWNIEGLLGRENLNGIGNDGEVSGWSSSFYKNIINLPSNVSIGTTSLVANKHISTTVVRSCIDSYASWFAVASPHLETSLFMIAGTSSCYMYGTTISDTRIPGVWGPFDTILDNRGDFSVYAAGQSCTGKLIEHLFESHPCARKILKDGADIYQVLEQTIRDIEKNNGLSIHILTKDMFFYGDYEGNRTPFADPRIKGSFIGESTDTSMLNLTYKYICILEFLSFQTKLIIDTFQNENSNIHIKELRISGSQAKNERLLSLISLVNNGVAIIKPKENVDMMGIKGAYVLAKSAKEKKQLADVITERDISNDSEKFESLAEYRLGNDSILLRKLLCVKYHIHLDMAKQQKRYHKLVDEVFQHL | not soluble
11 | MGSDKIHHHHHHMNSTTKSKEFEQHYSGTLSDYVTAIAWSPQGKTLAATSAAGEVVLWNDGELTTLQTGNGKSVDCLAFSPDGKFLAVGGQDGQVKIWQNTELIATLENAPAWVDKLAWNYTSNQLAFSLGRYVQVWDVDTHEIVVTLNFDNSSVLGIDWRIDGQYLAISGYKGVKIWHSQNWDEEPYSLDMTTVSLAMAWSPDGKFLASGNMDRSVTVLEWNNPDPWVMRGFPGKIRQLAWSEAMTKVGAPILASSSVEGIVVWEKLEDDTLGWEARVLTNHVGTINAIAFAPKSFLLASAAADGWLCLWNQAKEVSQIITGVSGGFSTLAWHPQGKLLAAGGEQGELVIWSKVLRGQGFGRS | not soluble
12 | MGSDKIHHHHHHMNTADNVVEMRSISKGFNGVSVLKDVSFDVRKGEVHALAGGNGAGKSTLMKILQGVYQADAGEILIGGKPVAINSIQDAKSAGIGMVFQEFSLVPSLTVAQNIFLAAEPLGAGGLIDDRASERRAKEIFAEMEVKVDPRAEVSRLGTAYWQLTEIAKALSQNAQVLIMDEPTASLARHESEALFELIDRLKQRGISIIYISHRMDEVYRLADRITILRDGRRLLTEPLTGVTPEQIVEGIVGKKIEGQLAYRERDQVAHDSAPLLEVRGLNAGPRVRDISFSLRPGEILGLAGLMGSGRTELARALFGIDRRDSGEIFIRGERINLTSPQQAITAGVALIPEDRRAQGLVLEHSVQDNLLLPLLGQIQRGPFLDGARGKELSSSLIKRFAVKVAHPHRPVRLLSGGNQQKVVIAKWLGTDPDILILDEPTAGVDIGTKSEILDMIRELASAGKAVIVISSEYPELLAVSDRVLVLKDGSIIRDIPRSEIADEEYLQLAVQGV | not soluble
13 | MGSDKIHHHHHHMNTIGERLKYLRKLNNLTQKQVAEKTGVQRGNISHYEKNDFLPSRVALISFANFFKTNYDWIVYGKGAIPKSIDEVMYAKSNSIAECNNGAAVDFSKRLIFTMKYFHETIDGLCLKLNISKDIFHEILIKKNVSAFDLFKICNYFNVSMDWMFNGNITYLKSDAKLQQAYLMNSKGNKPLSYDNHGMVQCTCEEKKLLIFFENLNTKDKSLVIDILNSVNNQASMDIQKLIK | not soluble
14 | MGSDKIHHHHHHMNTLASIQELARAIRNMIRTGIVVETDLDAGRCRVQTGGIYTDWLQWLTHRAGRSRTWWAPSIGEQVMILAVGGELDTAFVLPGIYSDDNPAPSASADAWHVEFPDGAVMSYEPETGALTVTGIKTADVTASDSVAVSVPVVLVKAETRVTLDTPEVVCTNKLTTGTLEVKQGGKMSGDIEHSGGAFTSNGVQVDKHGHGGIRRGDEWTEGTQ | not soluble
15 | MGSDKIHHHHHHMNVTDLPQACISLIENVPGIDFIDEDFAIFDNIDDIPSLDHPMRIDAVVFALCTKGFMRIRINMEEYVVGENHLVLSLPDQIIQHVERSEDVAGIFIVISKNFMEEIIPHIQNTLPAFFYIKEHPVTELNAEEIGCIKEYHSFLWKKVKAKRHPYRKEIAQSLLLAVFHEVYGMFKNHMPIEVKKSRQEELFAAFIQTLALHHKQERSVAFYAGKLCVTPKYLSLLVKNVSNRTAGEWIDNYVVLEAKALLSSSTLSIQEISDRLNFTNQSFFGKYFKQHVGISPTEYRKKW | not soluble
16 | MGSDKIHHHHHHMNWGKYATYSEDFFEKLTSESNQLDLYIFVQYLLHYQLSEAVDYCHQLGIALKGDIAIGIAHDSVDAWTHPELFHLDKQAGAPPDIFAVNGQNWGFPTYNWKKMAEDGYAWWKKRLTAMSNYFDAYRLDHILGFFRIWQMPEDSVRGLLGQFSPAIALSAEEIENSYGIPLRQWGLERFINPFIKDWVIDEIFGRDNRDWIIQTFLDYIGNGNYTFQNEYNNQKKVEKAQLEDWVREGLYKLHENIILLKDDENPEKYHPRISLIQTISFREFGDDYKGRLEKLYNDYFYGRNYEFWKEKAYEKLPVLKDATNMLACGEDLGMVPANVPDVMNHLNILRLIIERMPSDNRFVSPLNEVPYLSVLTTSSHDTSPLRAWWEENHEEIQRYYNEVMGWYGEAPYYASAEIIQEIVKRHLNSNAMMVILPIQDWLAMSEQLRKEDAKSEQINIPANPYHYWNYRLHCQLETLIDNQDWTEFLKKFIKESKRAY | not soluble
17 | MGSDKIHHHHHHMNWWLDPRIFEADNSELAMVLHPEWLNRRDVETIICDGSVRAGKTLIMSMSYVLWSMTNYNEEQFGIAGKTIGSLRRNVIRPLMRMLRGRGYEVKDKRADNLLVISHNGVTNYYYLFGGKDEGSQDLVQGITVAGFFFDEVALMPESFVNQATARASVDGAKFWFNCNPAGPYHWFKLEWLDQLDQHKAIHIHFTMKDNPSLSPETIDRYERMYTGVFYQRFILGQWVLSDGIIYDNFDKNKMVVKNPQGTARKYAVSIDYGTLNPTVFLMWGLYGDTWHLTKMYYYDGRHKHKQKTDEEYSAELDRFEDGLNPVEIIDPSAASFITLRRRGGHHVIKADNDVLDGIRKTGMAMNTGKIVFSPDLADLFKEFASYVWDEKAAEHGEDKPVKQHDHAMDAMRYFVMYMIGRQPTIQTFKLG | not soluble
